B1: LOXL2 (parent)
chain: YVEVKEGKTWKQICDKHWTAKNSR

Variants of: B1
Assay: protein stability index of a GFP-peptide fusion (GPS, HEK-293T) (PSI 1-6); higher = more stable
Details: c terminus: a fixed tail appended
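Further: lentivirally expressed fusions sorted by FACS into six bins by GFP to DsRed ratio, PSI derived from sequencing read proportions per bin multiplied by bin number.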

Which protein stability index does the source give for YQEVKEGKTWKQICDKHWTAKNSR [V2Q] here?
The protein stability index was 2.16.

Which protein stability index does the source give for YREVKEGKTWKQICDKHWTAKNSR [V2R] here?
The protein stability index was 3.03.

For YSEVKEGKTWKQICDKHWTAKNSR [V2S], which protein stability index is on record?
The protein stability index was 2.86.

With YTEVKEGKTWKQICDKHWTAKNSR [V2T] as the variant, how does the protein stability index read?
Its protein stability index is 2.22.

Which protein stability index does the source give for YWEVKEGKTWKQICDKHWTAKNSR [V2W] here?
The protein stability index was 1.98.

With YYEVKEGKTWKQICDKHWTAKNSR [V2Y] as the variant, how does the protein stability index read?
The protein stability index was 2.8.

For YVAVKEGKTWKQICDKHWTAKNSR [E3A], which protein stability index is on record?
The protein stability index was 4.18.

Which protein stability index does the source give for YVCVKEGKTWKQICDKHWTAKNSR [E3C] here?
Its protein stability index is 1.44.

For YVDVKEGKTWKQICDKHWTAKNSR [E3D], which protein stability index is on record?
The protein stability index was 2.63.

For YVFVKEGKTWKQICDKHWTAKNSR [E3F], which protein stability index is on record?
Its protein stability index is 2.52.

Which protein stability index does the source give for YVGVKEGKTWKQICDKHWTAKNSR [E3G] here?
Its protein stability index is 3.63.

For YVHVKEGKTWKQICDKHWTAKNSR [E3H], which protein stability index is on record?
Its protein stability index is 2.92.

For YVIVKEGKTWKQICDKHWTAKNSR [E3I], which protein stability index is on record?
The protein stability index was 2.53.

For YVKVKEGKTWKQICDKHWTAKNSR [E3K], which protein stability index is on record?
The protein stability index was 2.68.

With YVLVKEGKTWKQICDKHWTAKNSR [E3L] as the variant, how does the protein stability index read?
The protein stability index was 2.58.

Which protein stability index does the source give for YVMVKEGKTWKQICDKHWTAKNSR [E3M] here?
Its protein stability index is 1.06.

Which protein stability index does the source give for YVNVKEGKTWKQICDKHWTAKNSR [E3N] here?
Its protein stability index is 2.29.

Which protein stability index does the source give for YVQVKEGKTWKQICDKHWTAKNSR [E3Q] here?
Its protein stability index is 1.95.

With YVRVKEGKTWKQICDKHWTAKNSR [E3R] as the variant, how does the protein stability index read?
The protein stability index was 1.88.

For YVSVKEGKTWKQICDKHWTAKNSR [E3S], which protein stability index is on record?
Its protein stability index is 3.96.

Which protein stability index does the source give for YVTVKEGKTWKQICDKHWTAKNSR [E3T] here?
Its protein stability index is 3.63.

Which protein stability index does the source give for YVVVKEGKTWKQICDKHWTAKNSR [E3V] here?
The protein stability index was 1.56.

For YVWVKEGKTWKQICDKHWTAKNSR [E3W], which protein stability index is on record?
Its protein stability index is 2.6.

For YVYVKEGKTWKQICDKHWTAKNSR [E3Y], which protein stability index is on record?
The protein stability index was 2.73.

Which protein stability index does the source give for YVEAKEGKTWKQICDKHWTAKNSR [V4A] here?
The protein stability index was 2.73.

For YVECKEGKTWKQICDKHWTAKNSR [V4C], which protein stability index is on record?
The protein stability index was 2.22.

Which protein stability index does the source give for YVEEKEGKTWKQICDKHWTAKNSR [V4E] here?
Its protein stability index is 1.42.

Which protein stability index does the source give for YVEFKEGKTWKQICDKHWTAKNSR [V4F] here?
The protein stability index was 2.36.

Which protein stability index does the source give for YVEGKEGKTWKQICDKHWTAKNSR [V4G] here?
Its protein stability index is 2.86.

With YVEHKEGKTWKQICDKHWTAKNSR [V4H] as the variant, how does the protein stability index read?
The protein stability index was 1.74.

Which protein stability index does the source give for YVEIKEGKTWKQICDKHWTAKNSR [V4I] here?
Its protein stability index is 2.55.

With YVEKKEGKTWKQICDKHWTAKNSR [V4K] as the variant, how does the protein stability index read?
Its protein stability index is 2.03.

For YVELKEGKTWKQICDKHWTAKNSR [V4L], which protein stability index is on record?
Its protein stability index is 3.89.

With YVEMKEGKTWKQICDKHWTAKNSR [V4M] as the variant, how does the protein stability index read?
Its protein stability index is 1.82.

Which protein stability index does the source give for YVEPKEGKTWKQICDKHWTAKNSR [V4P] here?
Its protein stability index is 1.26.

Which protein stability index does the source give for YVEQKEGKTWKQICDKHWTAKNSR [V4Q] here?
The protein stability index was 1.51.

Which protein stability index does the source give for YVERKEGKTWKQICDKHWTAKNSR [V4R] here?
Its protein stability index is 2.1.

Which protein stability index does the source give for YVESKEGKTWKQICDKHWTAKNSR [V4S] here?
Its protein stability index is 2.73.

For YVEWKEGKTWKQICDKHWTAKNSR [V4W], which protein stability index is on record?
Its protein stability index is 1.39.

With YVEYKEGKTWKQICDKHWTAKNSR [V4Y] as the variant, how does the protein stability index read?
The protein stability index was 1.14.

With YVEVAEGKTWKQICDKHWTAKNSR [K5A] as the variant, how does the protein stability index read?
The protein stability index was 3.18.

For YVEVCEGKTWKQICDKHWTAKNSR [K5C], which protein stability index is on record?
Its protein stability index is 1.65.

For YVEVDEGKTWKQICDKHWTAKNSR [K5D], which protein stability index is on record?
Its protein stability index is 2.54.

Which protein stability index does the source give for YVEVEEGKTWKQICDKHWTAKNSR [K5E] here?
Its protein stability index is 1.7.

For YVEVGEGKTWKQICDKHWTAKNSR [K5G], which protein stability index is on record?
Its protein stability index is 2.46.

With YVEVHEGKTWKQICDKHWTAKNSR [K5H] as the variant, how does the protein stability index read?
Its protein stability index is 1.85.

For YVEVIEGKTWKQICDKHWTAKNSR [K5I], which protein stability index is on record?
The protein stability index was 2.46.

For YVEVLEGKTWKQICDKHWTAKNSR [K5L], which protein stability index is on record?
The protein stability index was 2.65.

Which protein stability index does the source give for YVEVMEGKTWKQICDKHWTAKNSR [K5M] here?
Its protein stability index is 2.33.

For YVEVNEGKTWKQICDKHWTAKNSR [K5N], which protein stability index is on record?
Its protein stability index is 1.86.

For YVEVPEGKTWKQICDKHWTAKNSR [K5P], which protein stability index is on record?
Its protein stability index is 1.7.

With YVEVQEGKTWKQICDKHWTAKNSR [K5Q] as the variant, how does the protein stability index read?
The protein stability index was 3.01.

Which protein stability index does the source give for YVEVREGKTWKQICDKHWTAKNSR [K5R] here?
Its protein stability index is 3.94.

With YVEVSEGKTWKQICDKHWTAKNSR [K5S] as the variant, how does the protein stability index read?
The protein stability index was 1.46.

Which protein stability index does the source give for YVEVTEGKTWKQICDKHWTAKNSR [K5T] here?
Its protein stability index is 2.35.

With YVEVVEGKTWKQICDKHWTAKNSR [K5V] as the variant, how does the protein stability index read?
Its protein stability index is 2.63.

Which protein stability index does the source give for YVEVWEGKTWKQICDKHWTAKNSR [K5W] here?
Its protein stability index is 2.87.

For YVEVYEGKTWKQICDKHWTAKNSR [K5Y], which protein stability index is on record?
Its protein stability index is 1.78.

With YVEVKAGKTWKQICDKHWTAKNSR [E6A] as the variant, how does the protein stability index read?
The protein stability index was 2.14.

Which protein stability index does the source give for YVEVKCGKTWKQICDKHWTAKNSR [E6C] here?
The protein stability index was 3.35.

For YVEVKDGKTWKQICDKHWTAKNSR [E6D], which protein stability index is on record?
The protein stability index was 2.9.

For YVEVKFGKTWKQICDKHWTAKNSR [E6F], which protein stability index is on record?
The protein stability index was 2.49.

For YVEVKGGKTWKQICDKHWTAKNSR [E6G], which protein stability index is on record?
Its protein stability index is 3.33.

With YVEVKHGKTWKQICDKHWTAKNSR [E6H] as the variant, how does the protein stability index read?
Its protein stability index is 2.64.

Which protein stability index does the source give for YVEVKIGKTWKQICDKHWTAKNSR [E6I] here?
Its protein stability index is 1.47.

Which protein stability index does the source give for YVEVKKGKTWKQICDKHWTAKNSR [E6K] here?
Its protein stability index is 2.89.

For YVEVKLGKTWKQICDKHWTAKNSR [E6L], which protein stability index is on record?
The protein stability index was 2.79.

With YVEVKMGKTWKQICDKHWTAKNSR [E6M] as the variant, how does the protein stability index read?
The protein stability index was 2.88.

For YVEVKNGKTWKQICDKHWTAKNSR [E6N], which protein stability index is on record?
The protein stability index was 2.44.

With YVEVKPGKTWKQICDKHWTAKNSR [E6P] as the variant, how does the protein stability index read?
The protein stability index was 2.18.

For YVEVKQGKTWKQICDKHWTAKNSR [E6Q], which protein stability index is on record?
Its protein stability index is 4.18.

Which protein stability index does the source give for YVEVKRGKTWKQICDKHWTAKNSR [E6R] here?
Its protein stability index is 1.84.

Which protein stability index does the source give for YVEVKSGKTWKQICDKHWTAKNSR [E6S] here?
Its protein stability index is 1.99.

Which protein stability index does the source give for YVEVKTGKTWKQICDKHWTAKNSR [E6T] here?
The protein stability index was 2.77.

With YVEVKVGKTWKQICDKHWTAKNSR [E6V] as the variant, how does the protein stability index read?
The protein stability index was 3.77.

For YVEVKWGKTWKQICDKHWTAKNSR [E6W], which protein stability index is on record?
Its protein stability index is 2.16.

For YVEVKYGKTWKQICDKHWTAKNSR [E6Y], which protein stability index is on record?
Its protein stability index is 2.65.

For YVEVKEAKTWKQICDKHWTAKNSR [G7A], which protein stability index is on record?
Its protein stability index is 1.61.

With YVEVKECKTWKQICDKHWTAKNSR [G7C] as the variant, how does the protein stability index read?
Its protein stability index is 2.29.

With YVEVKEDKTWKQICDKHWTAKNSR [G7D] as the variant, how does the protein stability index read?
The protein stability index was 1.6.

For YVEVKEEKTWKQICDKHWTAKNSR [G7E], which protein stability index is on record?
Its protein stability index is 1.7.

For YVEVKEFKTWKQICDKHWTAKNSR [G7F], which protein stability index is on record?
Its protein stability index is 1.65.

For YVEVKEHKTWKQICDKHWTAKNSR [G7H], which protein stability index is on record?
The protein stability index was 1.62.

Which protein stability index does the source give for YVEVKEIKTWKQICDKHWTAKNSR [G7I] here?
The protein stability index was 1.85.

With YVEVKEKKTWKQICDKHWTAKNSR [G7K] as the variant, how does the protein stability index read?
The protein stability index was 1.91.

With YVEVKELKTWKQICDKHWTAKNSR [G7L] as the variant, how does the protein stability index read?
The protein stability index was 1.95.

With YVEVKEMKTWKQICDKHWTAKNSR [G7M] as the variant, how does the protein stability index read?
The protein stability index was 1.72.

With YVEVKENKTWKQICDKHWTAKNSR [G7N] as the variant, how does the protein stability index read?
Its protein stability index is 2.64.

For YVEVKEPKTWKQICDKHWTAKNSR [G7P], which protein stability index is on record?
Its protein stability index is 1.96.

For YVEVKEQKTWKQICDKHWTAKNSR [G7Q], which protein stability index is on record?
Its protein stability index is 2.42.

With YVEVKERKTWKQICDKHWTAKNSR [G7R] as the variant, how does the protein stability index read?
Its protein stability index is 1.62.

For YVEVKESKTWKQICDKHWTAKNSR [G7S], which protein stability index is on record?
Its protein stability index is 1.86.

With YVEVKETKTWKQICDKHWTAKNSR [G7T] as the variant, how does the protein stability index read?
The protein stability index was 1.24.

For YVEVKEVKTWKQICDKHWTAKNSR [G7V], which protein stability index is on record?
The protein stability index was 2.8.
